The assay concerns the target T1, human B7-H4 (purified monomeric recombinant human protein, ACRO biosystems) (human, UniProt Q7Z7D3 29-258, limits assumed, chemically biotinylated (EZ-Link NHS-LC-Biotin) in the yeast display and competition experiments; non-biotinylated in SPR).
T1 construct: Bought recombinant monomeric protein; also called B7x; B7S1
T1 sequence: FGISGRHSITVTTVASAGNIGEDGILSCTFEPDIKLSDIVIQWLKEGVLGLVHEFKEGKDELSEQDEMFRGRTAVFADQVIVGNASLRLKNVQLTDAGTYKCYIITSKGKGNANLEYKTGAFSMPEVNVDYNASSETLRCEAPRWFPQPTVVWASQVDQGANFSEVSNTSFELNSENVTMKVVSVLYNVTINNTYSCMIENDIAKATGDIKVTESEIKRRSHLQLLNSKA
Kind of assay: SPR (Carterra LSA); scFv-Fc captured on anti-human IgG Fc, antigen injected. As to the method:
Finally, the affinity of the 24 clones was determined using high-throughput surface plasmon resonance (SPR). The supernatants were arrayed by non-covalent capture in a medium-density SPR chip previously coupled with an anti-human polyclonal antibody and (at least 4 replicates per clone). Non-biotinylated antigen was used for all affinity measurements and sensorgrams were fitted using a pseudo-first-order kinetic model (Lundström 1994). […] In fact, it is notable that the off rates for some of the tested antibodies are probably better than 10⁻⁵ (Table 7), as indicated by the bunching of matured antibodies at that value (Table 7)—such slow off rates are challenging to accurately measure using SPR. No affinity difference was observed between clones coming from one combo library versus the other.
The scFv from the final population (round 3, combo libraries) was bulk cloned into a yeast expression vector containing a human IgG1 Fc region to be expressed in the scFv-Fc format. For this, the scFv region was amplified by PCR, digested with BssHII and NheI restriction enzyme (New England Biolabs), and cloned into the pDNL9 vector, 92 clones were analyzed by Sanger sequencing and 24 of these plus the parental were expressed using S. cerevisiae strain YVH10 (ATCC MYA-4940). scFv-Fc fusions were expressed for 72 h at 20° C. in the presence of galactose. The Carterra LSA surface resonance system was used for the affinity measurements. Briefly, anti-Human IgG Fc (Southern Biotech, #2048-01) was covalently coupled to an HC30M chip following the manufacturer's protocols. Crude yeast supernatants containing the scFv-Fc fusions were arrayed on the chip.

Here are results for 15 molecules from patent publication US20240309095A1 (Incyte, published 2024).

B1: B07 scFv-Fc (scFv, V domains shown)
VH: EVQLVESGGGVVQPGRSLRLSCAASGFTFGDRAMNWVRQAPGKGLEWVSAISGSGATTYYADSVKGRFTISRDNSKNTLYLQMNSLRAEDTAVYYCARKRWYGMDVWGQGTTVTVSS
VL: SYELTQPPSVSVAPGKTARITCGGNNIGSKSVHWYQQKPGQAPVLVVYDDSDRPSGIPERFSGSNSGNTATLTISRVEAGDEADYYCQVWDRGMIFGTGTKLTVL
notes: Tested as scFv-Fc fusion (human IgG1 Fc, vector pDNL9) in crude yeast supernatant; Combo 2 library
As usually defined, the Kd is the equilibrium constant for the complex coming apart. The koff is the rate constant with which the complex falls apart. By kon is commonly meant a measure of how fast the partners come together. Take B1: the KD fold-improvement was 138 fold over parental, the Kd amounted to 0.054 nM, the koff was found to be 1.8e-05 s⁻¹ and the kon was determined as 330000 M⁻¹ s⁻¹.

B2: B11 scFv-Fc (scFv, V domains shown)
VH: EVQLVESGGGVVQPGRSLRLSCAASGFTFTSRAMNWVRQAPGKGLEWVSAISGSGATAYYADSVKGRFTISRDNSKNTLYLQMNSLRAEDTAVYYCARKRWYGMDVWGQGTTVTVSS
VL: SYELTQPPSVSVAPGKTARITCGGNNIGSKSVHWYQQKPGQAPVLVVYDDSDRPSGIPERFSGSNSGNTATLTISRVEAGDEADYYCQVWDRGMIFGTGTKLTVL
notes: as for B1
For B2, the KD fold-improvement was found to be 109 fold over parental, the Kd stood at 0.068 nM, the koff was found to be 1.2e-05 s⁻¹ and the kon turned out to be 180000 M⁻¹ s⁻¹.

B3: B08 scFv-Fc (scFv, V domains shown)
VH: EVQLVESGGGVVQPGRSLRLSCAASGFTFSDRAMNWVRQAPGKGLEWVSAISASGASRYYADSVKGRFTISRDNSKNTLYLQMNSLRAEDTAVYYCARKRWYGMDVWGQGTTVTVSS
VL: SYELTQPPSVSVAPGKTARITCGGNNIGSKSVHWYQQKPGQAPVLVVYDDSDRPSGIPERFSGSNSGNTATLTISRVEAGDEADYYCQVWDRGMIFGTGTKLTVL
notes: as for B1
For B3, the KD fold-improvement stood at 64 fold over parental, the Kd was found to be 0.117 nM, the koff was determined as 1.8e-05 s⁻¹ and the kon was found to be 150000 M⁻¹ s⁻¹.

B4: B06 scFv-Fc (scFv, V domains shown)
VH: EVQLVESGGGVVQPGRSLRLSCAASGFTFSNKAMNWVRQAPGKGLEWVSAISGSGATTYYADSVKGRFTISRDNSKNTLYLQMNSLRAEDTAVYYCARKRWYGMDVWGQGTTVTVSS
VL: SYELTQPPSVSVAPGKTARITCGGNNIGVKAVHWYQQKPGQAPVLVVYDDSDRPSGIPERFSGSNSGNTATLTISRVEAGDEADYYCQVWDRGMIFGTGTKLTVL
notes: Tested as scFv-Fc fusion (human IgG1 Fc, vector pDNL9) in crude yeast supernatant; Combo 1 library
As to B4, the KD fold-improvement came out at 76 fold over parental, the dissociation constant Kd is 0.097 nM, the koff was determined as 1.7e-05 s⁻¹ and the kon was 170000 M⁻¹ s⁻¹.

B5: A11 scFv-Fc (scFv, V domains shown)
VH: EVQLVESGGGVVQPGRSLRLSCAASGFTFSSRSMNWVRQAPGKGLEWVSAISGSGSTVYYADSVKGRFTISRDNSKNTLYLQMNSLRAEDTAVYYCARKRWYGMDVWGQGTTVTVSS
VL: SYELTQPPSVSVAPGKTARITCGGNNIGSKSVHWYQQKPGQAPVLVVYDDSDRPSGIPERFSGSNSGNTATLTISRVEAGDEADYYCQVWDRGMIFGTGTKLTVL
notes: as for B1
In the case of B5, the KD fold-improvement was 123 fold over parental, the Kd stood at 0.06 nM, the koff was 1.1e-05 s⁻¹ and the kon came out at 190000 M⁻¹ s⁻¹.

B6: A04 scFv-Fc (scFv, V domains shown)
VH: EVQLVESGGGVVQPGRSLRLSCAASGFTFSSRSMNWVRQAPGKGLEWVSAISGSGDTTYYADSVKGRFTISRDNSKNTLYLQMNSLRAEDTAVYYCARKRWYGMDVWGQGTTVTVSS
VL: SYELTQPPSVSVAPGKTARITCGGNNIGSKSVHWYQQKPGQAPVLVVYDDSDRPSGIPERFSGSNSGNTATLTISRVEAGDEADYYCQVWDRGMIFGTGTKLTVL
notes: as for B4
Consider B6, for which the KD fold-improvement came out at 108 fold over parental, the Kd was 0.069 nM, the koff is 2.1e-05 s⁻¹ and the kon amounted to 310000 M⁻¹ s⁻¹.

B7: B03 scFv-Fc (scFv, V domains shown)
VH: EVQLVESGGGVVQPGRSLRLSCAASGFTFGDRAMNWVRQAPGKGLEWVSAISGSGSGTYYADSVKGRFTISRDNSKNTLYLQMNSLRAEDTAVYYCARKRWYGMDVWGQGTTVTVSS
VL: SYELTQPPSVSVAPGKTARITCGGNNIGMKSVHWYQQKPGQAPVLVVYDDSDRPSGIPERFSGSNSGNTATLTISRVEAGDEADYYCQVWDRGMIFGTGTKLTVL
notes: as for B4
Take B7: the KD fold-improvement is 106 fold over parental, the Kd came to 0.07 nM, the koff stood at 2.1e-05 s⁻¹ and the kon was determined as 300000 M⁻¹ s⁻¹.

B8: B09 scFv-Fc (scFv, V domains shown)
VH: EVQLVESGGGVVQPGRSLRLSCAASGFTYSSRAMNWVRQAPGKGLEWVSAISSSGTTTYYADSVKGRFTISRDNSKNTLYLQMNSLRAEDTAVYYCARKRWYGMDVWGQGTTVTVSS
VL: SYELTQPPSVSVAPGKTARITCGGNNIGSKSVHWYQQKPGQAPVLVVYDDSDRPSGIPERFSGSNSGNTATLTISRVEAGDEADYYCQVWDRGMIFGTGTKLTVL
notes: as for B1
B8: the KD fold-improvement was found to be 63 fold over parental, the dissociation constant Kd is 0.118 nM, the koff amounted to 2.5e-05 s⁻¹ and the kon is 210000 M⁻¹ s⁻¹.

B9: B04 scFv-Fc (scFv, V domains shown)
VH: EVQLVESGGGVVQPGRSLRLSCAASGFSFSSRAMNWVRQAPGKGLEWVSAVSGSGSGTYYADSVKGRFTISRDNSKNTLYLQMNSLRAEDTAVYYCARKRWYGMDVWGQGTTVTVSS
VL: SYELTQPPSVSVAPGKTARITCGGNNIGLKSVHWYQQKPGQAPVLVVYDDSDRPSGIPERFSGSNSGNTATLTISRVEAGDEADYYCQVWDRGMIFGTGTKLTVL
notes: as for B4
Turning to B9, the KD fold-improvement is 43 fold over parental, the Kd turned out to be 0.172 nM, the koff was found to be 2.7e-05 s⁻¹ and the kon was found to be 160000 M⁻¹ s⁻¹.

B10: A08 scFv-Fc (scFv, V domains shown)
VH: EVQLVESGGGVVQPGRSLRLSCAASGFTFGDRAMNWVRQAPGKGLEWVSAISSSGTTSYYADSVKGRFTISRDNSKNTLYLQMNSLRAEDTAVYYCARKRWYGMDVWGQGTTVTVSS
VL: SYELTQPPSVSVAPGKTARITCGGNNIGSKSVHWYQQKPGQAPVLVVYDDSDRPSGIPERFSGSNSGNTATLTISRVEAGDEADYYCQVWDRGMIFGTGTKLTVL
notes: as for B1
Turning to B10, the KD fold-improvement amounted to 172 fold over parental, the Kd turned out to be 0.043 nM, the koff amounted to 1.3e-05 s⁻¹ and the kon was determined as 310000 M⁻¹ s⁻¹.

B11: A09 scFv-Fc (scFv, V domains shown)
VH: EVQLVESGGGVVQPGRSLRLSCAASGFTFSSRSMNWVRQAPGKGLEWVSAISGSGLTSYYADSVKGRFTISRDNSKNTLYLQMNSLRAEDTAVYYCARKRWYGMDVWGQGTTVTVSS
VL: SYELTQPPSVSVAPGKTARITCGGNNIGSKSVHWYQQKPGQAPVLVVYDDSDRPSGIPERFSGSNSGNTATLTISRVEAGDEADYYCQVWDRGMIFGTGTKLTVL
notes: as for B1
As for B11, the KD fold-improvement was 100 fold over parental, the Kd amounted to 0.074 nM, the koff came to 1.1e-05 s⁻¹ and the kon amounted to 160000 M⁻¹ s⁻¹.

B12: A02 scFv-Fc (scFv, V domains shown)
VH: EVQLVESGGGVVQPGRSLRLSCAASGFTFTSRAMNWVRQAPGKGLEWVSAISYEGRTQYYADSVKGRFTISRDNSKNTLYLQMNSLRAEDTAVYYCARKRWYGMDVWGQGTTVTVSS
VL: SYELTQPPSVSVAPGKTARITCGGNNIGSKSVHWYQQKPGQAPVLVVYDDSDRPSGIPERFSGSNSGNTATLTISRVEAGDEADYYCQVWDRGMIFGTGTKLTVL
notes: as for B4
In the case of B12, the KD fold-improvement amounted to 188 fold over parental, the Kd turned out to be 0.039 nM, the koff came to 1.1e-05 s⁻¹ and the kon worked out at 280000 M⁻¹ s⁻¹.

B13: A01 scFv-Fc (scFv, V domains shown)
VH: EVQLVESGGGVVQPGRSLRLSCAASGFTFSNKAMNWVRQAPGKGLEWVSAISGSGATTYYADSVKGRFTISRDNSKNTLYLQMNSLRAEDTAVYYCARKRWYGMDVWGQGTTVTVSS
VL: SYELTQPPSVSVAPGKTARITCGGNNIGSKSVHWYQQKPGQAPVLVVYDDSDRPSGIPERFSGSNSGNTATLTISRVEAGDEADYYCQVWDRGMIFGTGTKLTVL
notes: as for B4
As to B13, the KD fold-improvement is 33 fold over parental, the Kd turned out to be 0.224 nM, the koff came out at 3.7e-05 s⁻¹ and the kon came to 170000 M⁻¹ s⁻¹.

B14: A05 scFv-Fc (scFv, V domains shown)
VH: EVQLVESGGGVVQPGRSLRLSCAASGFTYSSRAMNWVRQAPGKGLEWVSAISGSGSNAYYADSVKGRFTISRDNSKNTLYLQMNSLRAEDTAVYYCARKRWYGMDVWGQGTTVTVSS
VL: SYELTQPPSVSVAPGKTARITCGGNNIGSKSVHWYQQKPGQAPVLVVYDDSDRPSGIPERFSGSNSGNTATLTISRVEAGDEADYYCQVWDRGMIFGTGTKLTVL
notes: as for B4
For B14, the KD fold-improvement was found to be 63 fold over parental, the Kd was determined as 0.117 nM, the koff was 2.2e-05 s⁻¹ and the kon is 190000 M⁻¹ s⁻¹.

B15: A10 scFv-Fc (scFv, V domains shown)
VH: EVQLVESGGGVVQPGRSLRLSCAASGFTFSSRSMNWVRQAPGKGLEWVSAISGTGYTTYYADSVKGRFTISRDNSKNTLYLQMNSLRAEDTAVYYCARKRWYGMDVWGQGTTVTVSS
VL: SYELTQPPSVSVAPGKTARITCGGNNIGSKSVHWYQQKPGQAPVLVVYDDSDRPSGIPERFSGSNSGNTATLTISRVEAGDEADYYCQVWDRGMIFGTGTKLTVL
notes: as for B1
Consider B15, for which the KD fold-improvement turned out to be 72 fold over parental, the Kd was determined as 0.103 nM, the koff stood at 1.4e-05 s⁻¹ and the kon amounted to 140000 M⁻¹ s⁻¹.
